Experimental findings from patent US20200024330A1 are described below.

What all share (assay): cell-based or functional assay
The target in assay [1] is HIV-1 Env of isolate MGRM-D-005 (HIV-1).
For assay [2], the target named is HIV-1 Env of isolate MGRM-D-008 (clade D) (HIV-1).
The target in assay [3] is HIV-1 Env of pseudovirus TRO.11 (Acute), clade B (HIV-1).
Assay [4] deals with HIV-1 MGRM-F1-018 Env (pseudovirus) (HIV-1).
The target of assay [5] is HIV-1 MGRM-C-025 Env (HIV-1).
Assay [6] has as its target HIV-1 Env of isolate MGRM-G-027 (clade G pseudovirus) (HIV-1).
In assay [7] the target is HIV-1 92RW020 envelope protein (Env) on pseudovirus (HIV-1).
Assay [8] has as its target HIV-1 Env of isolate 92UG031 (HIV-1).
Assay [9] concerns the target HIV-1 MGRM-A-010 envelope glycoprotein (Env) (HIV-1).
In assay [10] the target is HIV-1 Env of isolate MGRM-D-002 (clade D) (HIV-1).
For assay [11], the target named is HIV-1 92UG031 envelope glycoprotein (Env) (HIV-1).
For assay [12], the target named is HIV-1 92RW021 envelope glycoprotein (Env) on pseudovirus (HIV-1).
Assay [13] addresses HIV-1 MGRM-C-027 envelope glycoprotein (Env) on pseudovirus (HIV-1).
Assay [14] has as its target HIV-1 Env of isolate MGRM-D-013 (clade D) (HIV-1).
Assay [15] deals with HIV-1 93RW029 envelope glycoprotein (Env) (HIV-1).
Assay [16] addresses HIV-1 92RW020 envelope glycoprotein (Env) (HIV-1).
Assay [17] has as its target HIV-1 Env of isolate MGRM-F1-020 (HIV-1).
Assay [18] addresses HIV-1 Env of isolate 92UG114 (subtype D) (HIV-1).
Assay [19] addresses aMLV envelope on pseudovirus (negative control virus).
Assay [20] addresses HIV-1 JR-CSF Env K168A (HIV-1 (isolate JR-CSF)) (UniProt P20871).
In assay [21] the target is HIV-1 JR-CSF Env R480A (HIV-1 (isolate JR-CSF)) (UniProt P20871).
Assay [22] concerns the target HIV-1 JR-CSF Env R166A (HIV-1 (isolate JR-CSF)) (UniProt P20871).
In assay [23] the target is HIV-1 JR-CSF Env N156A (HIV-1 (isolate JR-CSF)) (UniProt P20871).
Assay [24] deals with HIV-1 JR-CSF Env T162A (HIV-1 (isolate JR-CSF)) (UniProt P20871).
The target in assay [25] is HIV-1 Env of isolate MGRM-A-014 (clade A), on pseudovirus (HIV-1).
Assay [26] deals with HIV-1 Env of isolate MGRM-A-011 (clade A), on pseudovirus (HIV-1).
Assay [27] concerns the target HIV-1 Env of isolate 6535.3 (pseudovirus) (HIV-1 isolate 6535.3, subtype B).
Assay [28] addresses HIV-1 Env of isolate 92BR020 (pseudovirus) (HIV-1 isolate 92BR020, subtype B).
In assay [29] the target is HIV-1 Env of isolate MGRM-D-028 (subtype D), on pseudovirus (HIV-1).
Assay [30] addresses HIV-1 Env of isolate MGRM-C-020 (HIV-1).
The target of assay [31] is HIV-1 Env of isolate MGRM-C-006 (HIV-1).
Assay [32] addresses HIV-1 Env of isolate MGRM-AG-013 (CRF_AG), on pseudovirus (HIV-1).
In assay [33] the target is HIV-1 Env of isolate MGRM-AE-004 (CRF01_AE), on pseudovirus (HIV-1).
Assay [34] concerns the target HIV-1 Env of isolate SF162 (HIV-1) (UniProt P19550).
In assay [35] the target is HIV-1 Env of isolate TRO.11 (HIV-1).
Assay [36] has as its target HIV-1 Env of isolate MGRM-D-001 (HIV-1).
Assay [37] concerns the target HIV-1 Env of isolate MGRM-AE-008 (CRF01_AE), on pseudovirus (HIV-1).
Assay [38] deals with HIV-1 Env of isolate PVO.4 (HIV-1).
Assay [39] concerns the target HIV-1 Env of isolate 92WR021 (HIV-1).
Assay [40] addresses HIV-1 Env of isolate MGRM-A-013 (clade A), on pseudovirus (HIV-1).

As for 1496_C09 (PG9) (TCN-109) (antibody), the IC50 (µg/mL), pseudovirus neutralization in assay [1] was 1.8 µg/mL. In addition, the IC50 (µg/ml), pseudovirus neutralization in [2] is 6.86 µg/mL; in assay [3] it was 5.43 µg/mL; in [4], 0.03 µg/mL; in [6], 0.01 µg/mL; in assay [10], 0.027 µg/mL; in assay [11] it was 3.08 µg/mL. For the same substance, the IC50 (µg/ml), pseudovirus neutralization in assay [12] came out at 0.05 µg/mL; in assay [14], 0.06 µg/mL; in assay [15] it was 1.19 µg/mL; in assay [16], 0.08 µg/mL. Moreover, the IC50 is 0.17 µg/mL in [5] and 3.6 µg/mL in assay [8]. Besides, the neutralization IC50 in assay [7] came out at 0.0637 µg/mL. The IC50 neutralization came out at 0.0375 µg/mL in assay [9], 2.45 µg/mL in assay [13] and 0.161 µg/mL in assay [16]. This substance also displayed an IC50 (ug/ml), neutralizing activity in assay [13] of 2.45 µg/mL.

In the case of 4838_L06 (PGT-121) (antibody), the IC50 in assay [17] turned out to be 0.167 µg/mL. Besides, the IC50 (µg/mL), pseudovirus neutralization in [18] was found to be 0.004 µg/mL. Moreover, the IC50 (ug/ml), neutralizing activity in assay [19] is more than 10 µg/mL.

4858_P08 (PGT-123) (antibody): the Fold IC50 increase relative to wild-type in assay [20] worked out at 0.8 fold; in assay [21], 1.7 fold; in assay [22], 0.9 fold; in assay [23], 6.2 fold; in [24], 0.7 fold. This substance also showed an IC50 in assay [17] of 0.051 µg/mL. The IC50 (µg/mL), pseudovirus neutralization in assay [18] was 0.005 µg/mL. In addition, the IC50 (ug/ml), neutralizing activity in assay [13] is 0.0169 µg/mL; in assay [19], more than 10 µg/mL. In addition, the IC50, pseudovirus neutralization in [13] was 0.0169 µg/mL. In [13], the IC80, pseudovirus neutralization was found to be 0.149 µg/mL. The substance further displayed an IC90 (pseudovirus neutralization) in assay [13] of more than 10 µg/mL. The IC95, pseudovirus neutralization in assay [13] is more than 10 µg/mL.

Substance 4877_D15 (PGT-122) (antibody) came in with an IC50 in assay [17] of 0.321 µg/mL. Also, the IC50 (µg/mL), pseudovirus neutralization in assay [18] amounted to 0.011 µg/mL. Moreover, the IC50 (ug/ml), neutralizing activity is 0.0388 µg/mL in assay [13] and more than 10 µg/mL in assay [19].

Take 5123_A06 (PGT-125) (antibody): the Fold IC50 increase relative to wild-type was 0.9 fold in assay [20]; 2.1 fold in assay [21]; 1.5 fold in [22]; 3.6 fold in assay [23]; 0.5 fold in [24]. Also, the IC50 in assay [17] is more than 50 µg/mL. The IC50 (µg/mL), pseudovirus neutralization in assay [18] came out at 0.349 µg/mL. The IC50 (ug/ml), neutralizing activity in [13] and in assay [19] was more than 10 µg/mL throughout. This substance also came in with a neutralization IC50 in assay [13] of more than 10 µg/mL. For the same substance, in assay [13], the neutralization IC80 was more than 10 µg/mL. Further, in assay [13], the neutralization IC90 was more than 10 µg/mL. In addition, the neutralization IC95 in [13] is more than 10 µg/mL.

For 5141_B17 (PGT-126) (antibody), the Fold IC50 increase relative to wild-type in [20] was found to be 0.7 fold; in assay [21], 1.9 fold; in [22], 1 fold; in assay [23], 1.8 fold; in assay [24], 0.6 fold. This substance registered an IC50 in [17] of more than 50 µg/mL. The substance also had an IC50 (µg/mL), pseudovirus neutralization in [18] of 0.038 µg/mL. Further, the IC50 (ug/ml), neutralizing activity in assay [13] is 1.14 µg/mL; in assay [19], more than 10 µg/mL.

For the substance 5145_B14 (PGT-127) (antibody), the Fold IC50 increase relative to wild-type in [20] is 1.9 fold; in assay [21] it was 0.2 fold; in [22] it was 1.6 fold; in [23], 1.6 fold; in assay [24], 1.1 fold. Besides, the IC50 in assay [17] was more than 50 µg/mL. Also, the IC50 (µg/mL), pseudovirus neutralization in assay [18] turned out to be 7.09 µg/mL.

As for 5329_C19 (PGT-136) (antibody), the IC50, single-round pseudovirus neutralization in assay [25], in assay [26], in assay [32], in [33], in assay [37] and in assay [40] was more than 50 µg/mL throughout. Besides, the IC50 in [1] was more than 50 µg/mL; in [30], more than 50 µg/mL; in assay [31], more than 50 µg/mL; in [34], 0.482 µg/mL; in assay [35], 0.073 µg/mL; in assay [36], more than 50 µg/mL. The IC50 in assay [38] is more than 50 µg/mL. Moreover, the IC50 (µg/mL) neutralization was more than 50 µg/mL in [27] and 8.61 µg/mL in assay [28]. In assay [29], this substance yielded an IC50, pseudovirus neutralization of more than 50 µg/mL. The neutralization IC50 in assay [8] and in assay [39] was more than 50 µg/mL in each case.

For 5345_I01 (PGT-137) (antibody), the IC50, single-round pseudovirus neutralization is 18.6 µg/mL in assay [25]; more than 50 µg/mL in assay [26]; more than 50 µg/mL in assay [32]; more than 50 µg/mL in assay [33]; more than 50 µg/mL in [37]; 49.2 µg/mL in assay [40]. For the same substance, the IC50 in assay [1] is more than 50 µg/mL; in assay [30], more than 50 µg/mL; in assay [31] it was more than 50 µg/mL; in assay [34], 3.41 µg/mL; in [35], 9.35 µg/mL; in [36], more than 50 µg/mL. In addition, the IC50 (µg/mL) neutralization was more than 50 µg/mL in assay [27] and 7.81 µg/mL in assay [28]. In addition, the IC50, pseudovirus neutralization in assay [29] was more than 50 µg/mL. The neutralization IC50 in assay [8] is more than 50 µg/mL; in [39], 3.52 µg/mL.

As to PGT-121 (antibody), the IC50 (µg/mL), pseudovirus neutralization was more than 50 µg/mL in [8] and 0.009 µg/mL in assay [39]. Also, the figures for the IC50 neutralization in [9] and in assay [16] were 2.61 µg/mL and 0.0063 µg/mL, respectively.

With PGT-122 (antibody), the IC50 (µg/mL), pseudovirus neutralization in assay [8] is more than 50 µg/mL; in assay [39] it was 0.021 µg/mL. Moreover, the IC50 neutralization in assay [9] came out at 1.68 µg/mL; in assay [16], 0.0072 µg/mL.

On to PGV04 (antibody), for which the IC50 (µg/mL), pseudovirus neutralization in assay [1] and in [36] was more than 50 µg/mL in each case. In [8], this substance had an IC50 of 4.46 µg/mL.

In [17], VRC01 (antibody) registered an IC50, pseudovirus neutralization of 1.89 µg/mL. Besides, the values for the neutralization IC50 in assay [34], in assay [35] and in assay [38] were 0.421 µg/mL, 0.186 µg/mL and 0.218 µg/mL, respectively.
